Test results taken from patent US20260234188A1, “CHEMOKINE-BINDING PEPTIDES” (Oxford University Innovation Limited, priority 2022, published 2026).

Target: CXL10_HUMAN (human) (UniProt P02778)
Assay: cell-based or functional assay

Sequence of CXL10_HUMAN (human) (P02778 22-98 limits assumed): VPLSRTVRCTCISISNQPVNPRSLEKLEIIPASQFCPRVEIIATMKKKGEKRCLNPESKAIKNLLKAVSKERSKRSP

Substance: EVA4_RHISA protein (from UniProt P0C8E9 24-127)
- cell migration: 20 µM
